From PMC8509576, “Loops around the Heme Pocket Have a Critical Role in the Function and Stability of BsDyP from Bacillus subtilis” (International Journal of Molecular Sciences, 2021)
Changes are numbered by the printed parent chain. Numbers in names are those of the source.

Columns and labels:
[1] = substrate: COc1cccc(OC)c1O; assay: steady-state kinetics, oxidation followed by absorbance; type: biochemical, Bacillus subtilis
Description: steady-state kinetics, oxidation followed by absorbance on BsDyP

[2] = substrate: CCn1c(=NN=c2sc3cc(S(=O)(=O)O)ccc3n2CC)sc2cc(S(=O)(=O)O)ccc21; assay: steady-state kinetics, ABTS oxidation; type: biochemical, Bacillus subtilis; conditions: one kcat column shared with H2O2
Description: steady-state kinetics, ABTS oxidation on BsDyP

[3] = 0.2 mM H2O2, sodium phosphate buffer pH 3.8, 25 °C, apparent, rates per holoprotein
[4] = 0.2 mM H2O2, pH 4.2, 25 °C, apparent
[5] = variant 3G5, 0.6 mM H2O2, sodium phosphate buffer pH 3.8, 25 °C
[6] = variant 3G5, 0.6 mM H2O2, pH 4.2, 25 °C
[7] = variant 54D6, 0.6 mM H2O2, sodium phosphate buffer pH 3.8, 25 °C
[8] = variant 54D6, 0.6 mM H2O2, pH 4.2, 25 °C
[9] = variant 5G5, 0.6 mM H2O2, sodium phosphate buffer pH 3.8, 25 °C
[10] = variant 5G5, 0.6 mM H2O2, pH 4.2, 25 °C
[11] = variant 1F9, 0.6 mM H2O2, sodium phosphate buffer pH 3.8, 25 °C
[12] = variant 1F9, 0.6 mM H2O2, pH 4.2, 25 °C

B1: BsDyP (Bacillus subtilis subsp. subtilis str. 168; A45M) (protein)
chain: MKPSKKDEKEEEQIVPFYGKHQAGITTAHQTYVYFAALDVTAKDKSDIITLFRNWTSLTQMLTSGKKMSAEQRNQYLPPQDTGESADLSPSNLTVTFGFGPGFFEKDGKDRFGLKSKKPKHLAALPAMPNDNLDEKQGGGDICIQVCADDEQVAFHALRNLLNQAVGTCEVRFVNKGFLSGGKNGETPRNLFGFKDGTGNQSTKDDTLMNSIVWIQSGEPDWMTGGTYMAFRKIKMFLEVWDRSSLKDQEDTFGRRKSSGAPFGQKKETDPVKLNQIPSNSHVSLAKSTGKQILRRAFSYTEGLDPKTGYMDAGLLFISFQKNPDNQFIPMLKALSAKDALNEYTQTIGSALYACPGGCKKGEYIAQRLLES
notes: Tat signal peptide (residues 1-45) deleted, A45M new start codon, plasmid pVB4 (pET-21a), no tag told; expressed in E. coli Tuner(DE3); called wild-type BsDyP; precursor 416 residues
[1]; [3]
  Km: 0.06 ± 0.01 mM
  kcat: 0.42 ± 0.03 s⁻¹
  kcat/Km: 7000 ± 1000 M⁻¹ s⁻¹
[2]; [4]
  Km: 0.42 ± 0.03 mM
  kcat: 14.2 ± 1.0 s⁻¹
  kcat/Km: 36000 ± 3000 M⁻¹ s⁻¹

B2: BsDyP (Bacillus subtilis subsp. subtilis str. 168; A330V/A45M/L166Q/T296S/V284A) (protein)
chain: B1 chain with L122Q, V240A, T252S, A286V
notes: as for B1
[1]; [5]
  Km: 0.09 ± 0.01 mM
  kcat: 0.8 ± 0.1 s⁻¹
  kcat/Km: 9000 ± 1000 M⁻¹ s⁻¹
[2]; [6]
  Km: 1.37 ± 0.25 mM
  kcat: 28.1 ± 2.1 s⁻¹
  kcat/Km: 25000 ± 5000 M⁻¹ s⁻¹

B3: BsDyP (Bacillus subtilis subsp. subtilis str. 168; A45M/K317E/S325P) (protein)
chain: B1 chain with K273E, S281P
notes: as for B1
[1]; [7]
  Km: 0.60 ± 0.01 mM
  kcat: 1 ± 0.1 s⁻¹
  kcat/Km: 1600 ± 500 M⁻¹ s⁻¹
[2]; [8]
  Km: 0.80 ± 0.14 mM
  kcat: 47.7 ± 2.9 s⁻¹
  kcat/Km: 60000 ± 11000 M⁻¹ s⁻¹

B4: BsDyP (Bacillus subtilis subsp. subtilis str. 168; A330V/A45M/K317E/S325P) (protein)
chain: B1 chain with K273E, S281P, A286V
notes: as for B1
[1]; [9]
  Km: 0.7 ± 0.1 mM
  kcat: 2.8 ± 0.1 s⁻¹
  kcat/Km: 3800 ± 200 M⁻¹ s⁻¹
[2]; [10]
  Km: 1.29 ± 0.19 mM
  kcat: 56.1 ± 1.9 s⁻¹
  kcat/Km: 42000 ± 6000 M⁻¹ s⁻¹

B5: BsDyP (Bacillus subtilis subsp. subtilis str. 168; A45M/S325P) (protein)
chain: B1 chain with S281P
notes: as for B1
[1]; [11]
  Km: 0.15 ± 0.01 mM
  kcat: 0.83 ± 0.04 s⁻¹
  kcat/Km: 5500 ± 400 M⁻¹ s⁻¹
[2]; [12]
  Km: 0.89 ± 0.10 mM
  kcat: 50.4 ± 1.4 s⁻¹
  kcat/Km: 58000 ± 7000 M⁻¹ s⁻¹
